Legend:
Rhesus-D antigen (human) = Rhesus-D antigen (human) (UniProt Q02161); assay: phage bound to Rh-D positive red blood cells, eluted with citric acid, titred on ampicillin plates; titre prior to selection 1.0 × 10^8
[1] = molecular target: bovine thyroglobulin (Sigma) (bovine) (UniProt P01267); assay: phage ELISA, 200 µg/ml thyroglobulin coating
[2] = molecular target: T1, turkey egg-white lysozyme (turkey, UniProt P00703 19-147); assay: heading of the table of deduced sequences
T1 construct: also called turkey egg lysozyme; turkey lysozyme
T1 sequence (P00703 19-147 limits assumed): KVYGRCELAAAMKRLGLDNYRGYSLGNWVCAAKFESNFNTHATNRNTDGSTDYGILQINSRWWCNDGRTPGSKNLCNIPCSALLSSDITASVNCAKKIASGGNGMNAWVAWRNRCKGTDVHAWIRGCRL

bovine thyroglobulin (Sigma) (bovine), sequence (P01267 20-2769 limits assumed): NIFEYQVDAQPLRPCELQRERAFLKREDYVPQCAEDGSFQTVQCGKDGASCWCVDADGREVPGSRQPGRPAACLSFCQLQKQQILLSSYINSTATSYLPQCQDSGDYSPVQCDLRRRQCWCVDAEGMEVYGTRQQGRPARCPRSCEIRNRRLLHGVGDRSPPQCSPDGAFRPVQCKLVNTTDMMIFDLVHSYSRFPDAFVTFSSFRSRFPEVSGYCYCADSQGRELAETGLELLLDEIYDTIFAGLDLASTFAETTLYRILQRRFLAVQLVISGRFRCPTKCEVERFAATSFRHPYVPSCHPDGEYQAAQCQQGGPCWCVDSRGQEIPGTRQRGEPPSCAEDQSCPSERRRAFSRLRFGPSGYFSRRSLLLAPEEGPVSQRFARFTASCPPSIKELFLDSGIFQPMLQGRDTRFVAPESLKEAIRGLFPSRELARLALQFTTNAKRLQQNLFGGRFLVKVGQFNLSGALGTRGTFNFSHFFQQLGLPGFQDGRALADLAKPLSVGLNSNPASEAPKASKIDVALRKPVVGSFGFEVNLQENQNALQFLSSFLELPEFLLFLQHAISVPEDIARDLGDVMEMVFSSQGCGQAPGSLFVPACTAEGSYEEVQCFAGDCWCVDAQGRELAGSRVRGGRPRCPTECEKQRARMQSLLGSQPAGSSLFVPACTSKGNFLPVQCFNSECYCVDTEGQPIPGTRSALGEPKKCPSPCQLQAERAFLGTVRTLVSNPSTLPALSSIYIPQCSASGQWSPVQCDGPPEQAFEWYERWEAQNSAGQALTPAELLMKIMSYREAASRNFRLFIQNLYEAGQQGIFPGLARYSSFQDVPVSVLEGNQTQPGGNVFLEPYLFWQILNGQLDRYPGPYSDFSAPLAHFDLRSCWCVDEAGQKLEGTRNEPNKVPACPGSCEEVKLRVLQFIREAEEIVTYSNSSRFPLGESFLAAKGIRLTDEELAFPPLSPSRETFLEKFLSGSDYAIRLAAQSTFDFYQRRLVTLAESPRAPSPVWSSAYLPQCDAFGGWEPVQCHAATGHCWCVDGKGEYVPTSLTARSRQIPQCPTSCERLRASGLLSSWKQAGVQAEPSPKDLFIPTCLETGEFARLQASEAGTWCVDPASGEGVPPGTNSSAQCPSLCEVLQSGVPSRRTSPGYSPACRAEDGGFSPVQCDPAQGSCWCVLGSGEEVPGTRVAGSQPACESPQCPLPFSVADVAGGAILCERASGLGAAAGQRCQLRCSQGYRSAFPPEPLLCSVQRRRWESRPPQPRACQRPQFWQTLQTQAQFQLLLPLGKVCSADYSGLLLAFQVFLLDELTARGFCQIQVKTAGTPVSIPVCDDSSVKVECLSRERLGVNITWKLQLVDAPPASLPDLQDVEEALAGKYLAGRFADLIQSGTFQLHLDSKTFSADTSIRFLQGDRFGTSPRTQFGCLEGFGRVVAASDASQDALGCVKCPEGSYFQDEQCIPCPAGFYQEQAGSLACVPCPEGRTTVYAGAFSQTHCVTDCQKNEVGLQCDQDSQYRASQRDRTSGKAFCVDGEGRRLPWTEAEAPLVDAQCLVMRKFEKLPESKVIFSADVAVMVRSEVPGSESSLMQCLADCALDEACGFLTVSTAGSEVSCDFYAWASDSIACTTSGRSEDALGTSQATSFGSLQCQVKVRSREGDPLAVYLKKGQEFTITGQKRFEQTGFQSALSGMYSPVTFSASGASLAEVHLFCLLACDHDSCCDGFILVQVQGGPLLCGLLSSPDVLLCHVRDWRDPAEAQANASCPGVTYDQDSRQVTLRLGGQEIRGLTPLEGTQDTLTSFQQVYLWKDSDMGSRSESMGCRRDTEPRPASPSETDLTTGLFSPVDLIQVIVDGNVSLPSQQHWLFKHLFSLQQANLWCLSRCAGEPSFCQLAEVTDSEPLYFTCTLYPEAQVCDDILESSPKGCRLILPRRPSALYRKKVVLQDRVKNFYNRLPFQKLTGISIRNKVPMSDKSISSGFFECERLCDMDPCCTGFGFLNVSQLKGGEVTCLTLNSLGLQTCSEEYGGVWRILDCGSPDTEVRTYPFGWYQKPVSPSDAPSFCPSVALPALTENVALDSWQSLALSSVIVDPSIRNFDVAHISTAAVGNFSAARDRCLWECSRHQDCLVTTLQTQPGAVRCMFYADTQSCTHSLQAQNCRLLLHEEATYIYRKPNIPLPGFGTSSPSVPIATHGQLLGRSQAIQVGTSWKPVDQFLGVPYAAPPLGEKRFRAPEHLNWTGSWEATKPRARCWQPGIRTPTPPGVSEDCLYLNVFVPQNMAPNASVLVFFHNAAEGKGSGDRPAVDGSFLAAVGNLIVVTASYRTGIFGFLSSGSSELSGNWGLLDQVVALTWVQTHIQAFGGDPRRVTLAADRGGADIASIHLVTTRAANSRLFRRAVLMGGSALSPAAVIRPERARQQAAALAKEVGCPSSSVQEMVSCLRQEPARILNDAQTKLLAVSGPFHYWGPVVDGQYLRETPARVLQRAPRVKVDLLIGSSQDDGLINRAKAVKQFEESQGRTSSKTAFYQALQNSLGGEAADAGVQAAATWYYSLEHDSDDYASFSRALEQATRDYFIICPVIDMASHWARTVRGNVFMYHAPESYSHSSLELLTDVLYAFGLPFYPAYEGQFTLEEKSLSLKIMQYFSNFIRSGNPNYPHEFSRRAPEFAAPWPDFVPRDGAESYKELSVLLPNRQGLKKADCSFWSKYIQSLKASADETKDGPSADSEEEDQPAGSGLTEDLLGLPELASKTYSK
Rhesus-D antigen (human), sequence (Q02161 2-417): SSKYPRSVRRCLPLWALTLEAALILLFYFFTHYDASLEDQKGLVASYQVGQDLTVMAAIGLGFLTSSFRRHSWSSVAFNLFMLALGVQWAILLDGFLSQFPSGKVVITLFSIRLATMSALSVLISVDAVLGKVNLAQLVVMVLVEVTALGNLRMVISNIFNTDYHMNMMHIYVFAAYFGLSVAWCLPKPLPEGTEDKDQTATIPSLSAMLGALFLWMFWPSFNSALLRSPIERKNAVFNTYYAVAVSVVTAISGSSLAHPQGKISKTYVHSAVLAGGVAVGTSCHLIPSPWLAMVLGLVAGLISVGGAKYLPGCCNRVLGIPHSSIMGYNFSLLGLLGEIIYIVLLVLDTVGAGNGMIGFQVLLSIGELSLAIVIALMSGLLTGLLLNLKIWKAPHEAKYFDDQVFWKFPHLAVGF

## Fog-B Fab fragment displayed on the surface of phage (pHEN1)
Rhesus-D antigen (human)
  titre of phage eluted after selection on Rh-D positive cells: 6e+06

## phage control (vector pCAT3) (from UniProt P03661 19-424)
[1]
  ELISA OD: 0.07 O.D.

B1: Lysozyme binder VH14.1 / VL14.1 (scFv, V domains shown)
VH: QVQLQESGPGLVKPSETLSLVCTVSGGSLSFSYWGWIRQPPGKGLEWIGYISHRGTDYNSSLQSRVTISADTSKNQFSLKLSSVTAADTAVYYCARSFSNSFFFGYWGQGT
VL: SSELTQDPAVSVAFGQTVRITCQGDSLRSSYASWYQQKPGQAPLLVIYGENSRPSGIPDRFSGSSSGNTASLTITGAQAEDEADYYCNSRDSRGTHLEVFGG
notes: Human scFv in pHEN1 on phage; Paired by common number
[2]
  binding result: binds

From patent US6806079
